Biological target: PoWRKY71 (Paeonia ostii, UniProt A0AB38Z7I8 1-311)
Test: EMSA; not stated in the material (EMSA as in Luan et al., ref. 58)
Details: protein: recombinant, tags: His, SUMO (pET-SUMO), blunt

PoWRKY71, sequence (A0AB38Z7I8 entry or part of it): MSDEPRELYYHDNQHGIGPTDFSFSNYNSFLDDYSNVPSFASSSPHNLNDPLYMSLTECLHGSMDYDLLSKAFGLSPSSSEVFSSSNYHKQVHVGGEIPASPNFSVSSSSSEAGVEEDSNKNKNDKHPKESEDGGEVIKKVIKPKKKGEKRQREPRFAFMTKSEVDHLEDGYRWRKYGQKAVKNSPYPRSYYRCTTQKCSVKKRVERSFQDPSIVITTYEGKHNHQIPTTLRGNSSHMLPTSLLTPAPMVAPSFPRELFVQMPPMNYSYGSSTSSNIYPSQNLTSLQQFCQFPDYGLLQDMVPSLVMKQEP

Binder	binding result	binding result (label: biotin)
PoCAB151 promoter W-box probe (dsDNA) DNA 1: GTGTTTCCTGCATTCGGTCAGCAACCAAATGACC DNA 2: GGTCATTTGGTTGCTGACCGAATGCAGGAAACAC	binds	
PoCAB151 promoter W-box mutant probe (dsDNA) DNA 1: GTGTTTCCTGCATTCGAAAAGCAACCAAATGACC DNA 2: GGTCATTTGGTTGCTTTTCGAATGCAGGAAACAC		no binding
